Data taken from doi:10.1101/383430 (bioRxiv, 2018).

Target: T1, FAP45 (flagellar-associated protein 45) (Chlamydomonas (endogenous in axonemes), UniProt A8I9E8 1-501)
T1 sequence (looked up): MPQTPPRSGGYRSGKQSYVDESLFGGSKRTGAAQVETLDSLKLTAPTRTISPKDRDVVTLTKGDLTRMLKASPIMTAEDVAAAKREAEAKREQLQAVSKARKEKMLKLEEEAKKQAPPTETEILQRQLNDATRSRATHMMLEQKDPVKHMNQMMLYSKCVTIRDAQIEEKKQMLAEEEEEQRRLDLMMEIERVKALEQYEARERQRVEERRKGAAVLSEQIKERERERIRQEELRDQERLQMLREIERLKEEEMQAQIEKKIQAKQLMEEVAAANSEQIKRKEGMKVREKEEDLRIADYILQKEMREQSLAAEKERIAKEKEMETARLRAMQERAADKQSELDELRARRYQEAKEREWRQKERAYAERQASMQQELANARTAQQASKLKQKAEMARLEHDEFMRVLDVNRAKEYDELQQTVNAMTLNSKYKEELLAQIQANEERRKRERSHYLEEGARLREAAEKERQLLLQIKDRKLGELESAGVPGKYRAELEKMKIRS
Assay: cross-linking

B1: FAP52 (flagellar-associated protein 52) (natural protein, Chlamydomonas (endogenous in axonemes), UniProt A8ILK1 1-615, looked up)
chain: MAEPLVLNSVIGFGGAIENGLIAHPDGRTIIYPLGSTIVLRDRADPRSQEFLQGHSDKVSCLALSRSGRYLASGQITYMGFTADIIIWDLESKQLIHRMALHKVKVQALDFSCDERFLASLGGQDDNALVLWDVASGNAICGSPCNTNFTNCVKFFNNSPDKLITAGNFNMNVWTYDAGNNKLRPTDATLGTLKRVFKSVVVDANDEYAYCGTTTGDVLQIALERVLFKNTGPAKGNVQMGVTATCEVPTGDILVGGGDGSLQLLRKMPALAGTKVEGAITSIALADMNARGFTFFVGTAMCNIYKPATSRLKEELVQTAHNDKINGMAFPNEYSEVFATCGTGFIRLWHLTTCRELLRIAVPNLECFCIAFTTDGSAILSGWSDGKIRAFGPQSGKIIFTINDAHQKAVTAIASTADSSRILSGGEEGMVRVWRIGRTSQTLEASMKDHKGPVNCIRIKGSGDECVSASSDGSCILWDLHTFKRRTSLFANTFFKSVVYHPDESQLVTAGTDRKVTYWDAYDGNAIRIIDGSDLDEVNALAVDRDGEALVSGGGDKLVKLWGYDEGHCYFVGVAHSGAITAVGVTPDKQRIVSVGTEGGIFIWDYQRPQTLADI
stoichiometry N: ~1
